Target: T1, CPY*-CPY fusion protein (S. cerevisiae) (UniProt P00729)
T1 sequence (P00729 whole entry, looked up): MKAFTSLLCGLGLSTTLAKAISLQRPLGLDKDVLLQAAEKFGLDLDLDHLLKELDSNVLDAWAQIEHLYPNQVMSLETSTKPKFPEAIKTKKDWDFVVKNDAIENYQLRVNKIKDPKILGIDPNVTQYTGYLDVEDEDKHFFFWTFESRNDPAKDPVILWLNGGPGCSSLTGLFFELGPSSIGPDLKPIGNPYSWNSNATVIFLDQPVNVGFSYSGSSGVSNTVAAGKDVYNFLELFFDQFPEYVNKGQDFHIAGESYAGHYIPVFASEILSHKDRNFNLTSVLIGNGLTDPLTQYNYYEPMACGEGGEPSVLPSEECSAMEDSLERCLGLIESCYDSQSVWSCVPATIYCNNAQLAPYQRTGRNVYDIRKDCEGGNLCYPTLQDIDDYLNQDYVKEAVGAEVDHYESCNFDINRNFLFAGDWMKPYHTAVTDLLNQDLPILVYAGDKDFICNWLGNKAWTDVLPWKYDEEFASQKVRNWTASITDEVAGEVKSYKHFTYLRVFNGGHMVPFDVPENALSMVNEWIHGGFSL
Assay: co-IP

B1: Hrd1p (enzyme)
chain: MVPENRRKQLAIFVVVTYLLTFYCVYSATKTSVSFLQVTLKLNEGFNLMVLSIFILLNSTLLWQLLTKLLFGELRLIEHEHIFERLPFTIINTLFMSSLFHERYFFTVAFFGLLLLYLKVFHWILKDRLEALLQSINDSTTMKTLIFSRFSFNLVLLAVVDYQIITRCISSIYTNQKSDIESTSLYLIQVMEFTMLLIDLLNLFLQTCLNFWEFYRSQQSLSNENNHIVHGDPTDENTVESDQSQPVLNDDDDDDDDDRQFTGLEGKFMYEKAIDVFTRFLKTALHLSMLIPFRMPMMLLKDVVWDILALYQSGTSLWKIWRNNKQLDDTLVTVTVEQLQNSANDDNICIICMDELIHSPNQQTWKNKNKKPKRLPCGHILHLSCLKNWMERSQTCPICRLPVFDEKGNVVQTTFTSNSDITTQTTVTDSTGIATDQQGFANEVDLLPTRTTSPDIRIVPTQNIDTLAMRTRSTSTPSPTWYTFPLHKTGDNSVGSSRSAYEFLITNSDEKENGIPVKLTIENHEVNSLHGDGGEQIAKKIVIPDKFIQHI
inhibition of the co-precipitation in yos9Δ cells against wild-type cells: 70%

From PMC3315801
